Tests used:
[1] = target: T1, Antigen CD66c (CEACAM6; Sino Biological, Inc.) (UniProt P40199 35-320); test: ELISA, CEACAM6 coated 100 ng/well, antibody at 370.37 ng/ml
T1 construct: Bought antigen, coated on the ELISA plate; construct not described; also called CECACAM6 (CD66c) antigen; CD66c antigen
T1 sequence (looked up): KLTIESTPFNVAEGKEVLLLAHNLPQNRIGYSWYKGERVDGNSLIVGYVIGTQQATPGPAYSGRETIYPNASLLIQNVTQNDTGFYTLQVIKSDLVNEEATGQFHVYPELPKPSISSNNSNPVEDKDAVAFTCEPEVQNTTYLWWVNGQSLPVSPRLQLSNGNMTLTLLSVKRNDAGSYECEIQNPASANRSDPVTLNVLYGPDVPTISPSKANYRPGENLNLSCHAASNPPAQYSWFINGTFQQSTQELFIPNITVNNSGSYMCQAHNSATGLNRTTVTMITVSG
Protocol: (§1) Antigen CD66c (CEACAM6; Sino Biological, Inc.) and CEACAM1 antigen (Sino Biological, Inc.) were coated on a 96-well plate at a rate of 100 ng per well and then blocked. The primary antibody was diluted 3-fold from 10 ug/ml and bound at 37° C. for 1 hour. […] goat anti-Human Ig-HRP conjugate (Jackson ImmunoResearch) as a secondary antibody was diluted 1:10,000 and incubated at 37° C. for 30 minutes. The washing was carried out at three times between each step, and the TMB reaction was performed, stopped with 1N H₂SO₄ solution at the same amount of TMB solution (100 ul) and then OD value was measured at 450 nm.
(§2) As a result of the experiment, the binding affinities to CD66c antigen of the five kinds of recombinant humanized antibodies selected from among 96 kinds of recombinant humanized antibodies are shown in FIG. 4a, Table 12, FIG. 4b and Table 13. FIG. 4a and Table 12 show the binding capacity of the antibodies to CECACAM6 CD66c) antigen, and FIG. 4b and Table 13 are the results for the CEACAM1 (CD66a) antigen.

[2] = target: T2, CEACAM1 antigen (Sino Biological, Inc.) (UniProt P13688 35-428); test: ELISA, CEACAM1 coated 100 ng/well, antibody at 3333.33 ng/ml
T2 construct: Bought antigen, coated on the ELISA plate; construct not described; also called CEACAM1 (CD66a) antigen; CD66a
T2 sequence (looked up): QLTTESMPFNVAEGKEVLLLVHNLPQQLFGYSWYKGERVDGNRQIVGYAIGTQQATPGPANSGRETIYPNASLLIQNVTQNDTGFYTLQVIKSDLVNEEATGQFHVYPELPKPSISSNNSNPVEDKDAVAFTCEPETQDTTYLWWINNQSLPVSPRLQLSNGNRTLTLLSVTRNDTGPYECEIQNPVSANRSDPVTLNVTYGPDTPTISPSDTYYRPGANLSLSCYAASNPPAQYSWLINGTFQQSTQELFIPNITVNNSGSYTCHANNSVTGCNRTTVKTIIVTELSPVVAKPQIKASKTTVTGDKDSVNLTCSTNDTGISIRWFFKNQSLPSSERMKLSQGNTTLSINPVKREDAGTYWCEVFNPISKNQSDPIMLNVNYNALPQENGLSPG
Protocol: as §1

[3] = target: T1, Antigen CD66c (CEACAM6; Sino …); test: ELISA, CEACAM6 coated 100 ng/well, antibody at 0.17 ng/ml
Protocol: as §1, §2

[4] = target: T1, Antigen CD66c (CEACAM6; Sino …); test: ELISA, CEACAM6 coated 100 ng/well, antibody at 1111.11 ng/ml
Protocol: as §1, §2

[5] = target: T2, CEACAM1 antigen (Sino Biological, Inc.); test: ELISA, CEACAM1 coated 100 ng/well, antibody at 10000.00 ng/ml
Protocol: as §1

[6] = target: T1, Antigen CD66c (CEACAM6; Sino …); test: ELISA, CEACAM6 coated 100 ng/well, antibody at 4.57 ng/ml
Protocol: as §1, §2

[7] = target: T1, Antigen CD66c (CEACAM6; Sino …); test: ELISA, CEACAM6 coated 100 ng/well, antibody at 123.46 ng/ml
Protocol: as §1, §2

[8] = target: T1, Antigen CD66c (CEACAM6; Sino …); test: ELISA, CEACAM6 coated 100 ng/well, antibody at 0.51 ng/ml
Protocol: as §1, §2

[9] = target: T2, CEACAM1 antigen (Sino Biological, Inc.); test: ELISA, CEACAM1 coated 100 ng/well, antibody at 123.46 ng/ml
Protocol: as §1

[10] = target: T2, CEACAM1 antigen (Sino Biological, Inc.); test: ELISA, CEACAM1 coated 100 ng/well, antibody at 4.57 ng/ml
Protocol: as §1

[11] = target: T1, Antigen CD66c (CEACAM6; Sino …); test: ELISA, CEACAM6 coated 100 ng/well, antibody at 1.52 ng/ml
Protocol: as §1, §2

[12] = target: T1, Antigen CD66c (CEACAM6; Sino …); test: ELISA, CEACAM6 coated 100 ng/well, antibody at 41.15 ng/ml
Protocol: as §1

[13] = target: T2, CEACAM1 antigen (Sino Biological, Inc.); test: ELISA, CEACAM1 coated 100 ng/well, antibody at 13.72 ng/ml
Protocol: as §1

[14] = target: T1, Antigen CD66c (CEACAM6; Sino …); test: ELISA, CEACAM6 coated 100 ng/well, antibody at 13.72 ng/ml
Protocol: as §1, §2

[15] = target: T1, Antigen CD66c (CEACAM6; Sino …); test: ELISA, CEACAM6 coated 100 ng/well, antibody at 10000.00 ng/ml
Protocol: as §1, §2

B1: recombinant humanized anti-CD66c antibody Protein ID 3058 (Vk8 + VH11) (antibody, human IgG1, V domains shown)
VH: QVQLVQSGAEVKKPGASVKISCKASGYSFTDYTMHWVKQAPGQNLEWIGLINPFGGSTSYAQKFKGRVTMTRDTSTNTAYMELSRLRSDDTAVYYCVRGDPVRHYYALAYWGQGTLVTVSS
VL: DIQMTQSPSTLSASVGDRVTITCRASENVYGTLNWYQRKPGKAPKLLIYGATNLADGMPSRFSGSGSGTEYTLTISSLQPDDFATYYCQNVLSAPYTFGGGTKLEIK
notes: also called hu 3058; #86
OD 450 nm [1]: 2.8 OD 450 nm
OD 450 nm [2]: 0.31 OD 450 nm
OD 450 nm [3]: 0.37 OD 450 nm
OD 450 nm [4]: 3.19 OD 450 nm
OD 450 nm [5]: 0.42 OD 450 nm
OD 450 nm [6]: 0.74 OD 450 nm
OD 450 nm [7]: 2.22 OD 450 nm
OD 450 nm [8]: 0.38 OD 450 nm
OD 450 nm [9]: 0.07 OD 450 nm
OD 450 nm [10]: 0.05 OD 450 nm
OD 450 nm [11]: 0.53 OD 450 nm
OD 450 nm [12]: 1.38 OD 450 nm
OD 450 nm [13]: 0.05 OD 450 nm
OD 450 nm [14]: 1.06 OD 450 nm
OD 450 nm [15]: 2.87 OD 450 nm

B2: recombinant humanized anti-CD66c antibody Protein ID 3007 (Vk7 + VH6) (antibody, human IgG1, V domains shown)
VH: QVQLVQSGAEVKKPGASMKISCKASGYSFTDYTMNWVKQAPGQNLEWIGLINPFHGGTVSNQRFKVKATLTVDVSTNTAYMELSRLRSDDTAVYYCVRGDPVRHYYALAYWGQGTLVTVSS
VL: DIQMTQSPSTLSASVGDRVTITCGASENVYGTLNWYQRKPGKAPKLLIYGATNLADGVPSRFSGSGSGTEYTLTISSLQPDDFATYYCQNVLSAPYTFGGGTKLEIK
notes: also called hu 3007; #43
OD 450 nm [1]: 3.16 OD 450 nm
OD 450 nm [2]: 1.15 OD 450 nm
OD 450 nm [3]: 0.53 OD 450 nm
OD 450 nm [4]: 3.23 OD 450 nm
OD 450 nm [5]: 1.01 OD 450 nm
OD 450 nm [6]: 1.02 OD 450 nm
OD 450 nm [7]: 2.9 OD 450 nm
OD 450 nm [8]: 0.64 OD 450 nm
OD 450 nm [9]: 0.82 OD 450 nm
OD 450 nm [10]: 0.27 OD 450 nm
OD 450 nm [11]: 0.79 OD 450 nm
OD 450 nm [12]: 2.17 OD 450 nm
OD 450 nm [13]: 0.46 OD 450 nm
OD 450 nm [14]: 1.64 OD 450 nm
OD 450 nm [15]: 3.37 OD 450 nm

B3: recombinant humanized anti-CD66c antibody Protein ID 2938 (Vk5 + VH7) (antibody, human IgG1, V domains shown)
VH: QVQLVQSGAEVKKPGASMKISCKASGYSFTDYTMNWVRQAPGQGLEWIGLINPFHGGTVSNQRFKVKATLTVDVSTNTAYMELSRLRSDDTAVYYCVRGDPVRHYYALAYWGQGTLVTVSS
VL: DIQMTQSPSTLSASVGDRVTITCGASENVYGTLAWYQRKPGKAPKLLIYGATNLADGVPSRFSGSGSGREYTLTISSLQPDDFATYYCQNVLSAPYTFGGGTKLEIK
notes: also called hu 2938
OD 450 nm [1]: 3.08 OD 450 nm
OD 450 nm [2]: 0.27 OD 450 nm
OD 450 nm [3]: 0.3 OD 450 nm
OD 450 nm [4]: 3.16 OD 450 nm
OD 450 nm [5]: 0.32 OD 450 nm
OD 450 nm [6]: 0.65 OD 450 nm
OD 450 nm [7]: 2.56 OD 450 nm
OD 450 nm [8]: 0.36 OD 450 nm
OD 450 nm [9]: 0.1 OD 450 nm
OD 450 nm [10]: 0.05 OD 450 nm
OD 450 nm [11]: 0.48 OD 450 nm
OD 450 nm [12]: 1.72 OD 450 nm
OD 450 nm [13]: 0.06 OD 450 nm
OD 450 nm [14]: 1.15 OD 450 nm
OD 450 nm [15]: 3.43 OD 450 nm

B4: recombinant humanized anti-CD66c antibody Protein ID 3043 (Vk8 + VH6) (antibody, V domains shown)
VH: QVQLVQSGAEVKKPGASMKISCKASGYSFTDYTMNWVKQAPGQNLEWIGLINPFHGGTVSNQRFKVKATLTVDVSTNTAYMELSRLRSDDTAVYYCVRGDPVRHYYALAYWGQGTLVTVSS
VL: DIQMTQSPSTLSASVGDRVTITCRASENVYGTLNWYQRKPGKAPKLLIYGATNLADGMPSRFSGSGSGTEYTLTISSLQPDDFATYYCQNVLSAPYTFGGGTKLEIK
notes: also called hu 3043; #71
OD 450 nm [1]: 2.92 OD 450 nm
OD 450 nm [2]: 1.22 OD 450 nm
OD 450 nm [3]: 0.41 OD 450 nm
OD 450 nm [4]: 2.74 OD 450 nm
OD 450 nm [5]: 0.91 OD 450 nm
OD 450 nm [6]: 0.91 OD 450 nm
OD 450 nm [7]: 2.29 OD 450 nm
OD 450 nm [8]: 0.49 OD 450 nm
OD 450 nm [9]: 0.7 OD 450 nm
OD 450 nm [10]: 0.27 OD 450 nm
OD 450 nm [11]: 0.7 OD 450 nm
OD 450 nm [12]: 1.73 OD 450 nm
OD 450 nm [13]: 0.43 OD 450 nm
OD 450 nm [14]: 1.37 OD 450 nm
OD 450 nm [15]: 2.73 OD 450 nm

B5: anti-CD66c chimeric antibody 8F5 (antibody, human IgG1, V domains shown)
VH: EVQLQQSGPELVKPGASMKISCKASGYSFTDYTMNWVKQSHGKNLEWIGLINPFHGGTVSNQRFKVKATLTVDVSSNTAYMELLSLTSDDSAVYYCVRGDPVRHYYALAYWGQGTSVTVSS
VL: DIQMTQSPASLSASVGETVTITCGASENVYGTLNWYQRKQGKSPQLLIYGATNLADGMSSRFSGSGSGRQYSLKISSLHPDDVATYYCQNVLSAPYTFGGGTKLEII
notes: also called chimeric 8F5; chi 8F5
OD 450 nm [1]: 3.3 OD 450 nm
OD 450 nm [2]: 1.24 OD 450 nm
OD 450 nm [3]: 0.4 OD 450 nm
OD 450 nm [4]: 3.3 OD 450 nm
OD 450 nm [5]: 1.21 OD 450 nm
OD 450 nm [6]: 0.8 OD 450 nm
OD 450 nm [7]: 2.83 OD 450 nm
OD 450 nm [8]: 0.41 OD 450 nm
OD 450 nm [9]: 0.95 OD 450 nm
OD 450 nm [10]: 0.28 OD 450 nm
OD 450 nm [11]: 0.53 OD 450 nm
OD 450 nm [12]: 2.02 OD 450 nm
OD 450 nm [13]: 0.51 OD 450 nm
OD 450 nm [14]: 1.15 OD 450 nm
OD 450 nm [15]: 3.17 OD 450 nm
